Columns and labels:
Assay type in all cases: cell-based
RPMI-7951 [1] = test: PDGFβ stimulation and MEK inhibition of PDGFβ stimulation (FIGS. 23 and 24); conditions: PDGFβ stimulation
[2] = tested on: human pancreatic neuroendocrine tumors (PanNETs); test: Pancreatic tumor functional signaling profile upon TPA stimulation (FIG. 18); conditions: tumor sample 10189 (metastatic PancNET)
Description: All samples except 10195 are examples of human pancreatic neuroendocrine tumors (PanNETs). 10195 is a sample of a human pancreatic adenocarcinoma. The data reveal differences in functional profiles based on TPA stimulation using three different phosphoprotein biomarkers (p-ERK1/2, p-GSKα/β, and p-STAT3).

RPMI-7951 [3] = test: Melanoma pErk induction following stimulation by TPA (FIG. 17)

| Molecule | pPDGF (RPMI-7951 [1]) | pERK induction [2] [×] | pErk (RPMI-7951 [3]) |
| --- | --- | --- | --- |
| PDGFβ: platelet-derived growth factor stimulus applied to melanoma cell lines (protein, UniProt P01127 82-190, looked up) Platelet-derived growth …: SLGSLTIAEPAMIAECKTRTEVFEISRRLIDRTNANFLVWPPCVEVQRCSGCCNNRNVQCRPTQVQLRPVQVRKIEIVRKKPIFKKATVTLEDHLACKCETVAAARPVT | activated | – | – |
| tissue plasminogen activator (protein, UniProt P00750 36-562, looked up, modulator used for ex vivo stimulation) Tissue-type plasminogen …: SYQVICRDEKTQMIYQQHQSWLRPVLRSNRVEYCWCNSGRAQCHSVPVKSCSEPRCFNGGTCQQALYFSDFVCQCPEGFAGKCCEIDTRATCYEDQGISYRGTWSTAESGAECTNWNSSALAQKPYSGRRPDAIRLGLGNHNYCRNPDRDSKPWCYVFKAGKYSSEFCSTPACSEGNSDCYFGNGSAYRGTHSLTESGASCLPWNSMILIGKVYTAQNPSAQALGLGKHNYCRNPDGDAKPWCHVLKNRRLTWEYCDVPSCSTCGLRQYSQPQFRIKGGLFADIASHPWQAAIFAKHRRSPGERFLCGGILISSCWILSAAHCFQERFPPHHLTVILGRTYRVVPGEEEQKFEVEKYIVHKEFDDDTYDNDIALLQLKSDSSRCAQESSVVRTVCLPPADLQLPDWTECELSGYGKHEALSPFYSERLKEAHVRLYPSSRCTSQHLLNRTVTDNMLCAGDTRSGGPQANLHDACQGDSGGPLVCLNDGRMTLVGIISWGLGCGQKDVPGVYTKVTNYLDWIRDNMRP | – | 10 | induction |

From patent US9766249B2, “Compositions and methods for prediction of drug sensitivity, resistance, and disease progression” (BioMarker Strategies, LLC, priority 2010, dated 2017)
